From paper PMC12631010, “5‐Thiohistidine N‐Acetyltransferase from Proteiniphilum Saccharofermentans” (Chembiochem, 2025)

Legend:
purified protein [1] = substrate: CC(=O)SCCNC(=O)CCNC(=O)[C@H](O)C(C)(C)COP(=O)(O)OP(=O)(O)OC[C@H]1O[C@@H](n2cnc3c(N)ncnc32)[C@H](O)[C@@H]1OP(=O)(O)O; test: purified protein; type: biochemical, Proteiniphilum saccharofermentans; details: 1000 μM 5-thiohistidine; otherwise same
purified protein [2] = substrate: N[C@@H](Cc1[nH]cnc1S)C(=O)O; test: purified protein; type: biochemical, Proteiniphilum saccharofermentans; details: 500 μM acetyl-CoA, 0.2 μM enzyme; phosphate pH 8.0, 20 mM NaCl, 2 mM TCEP, 26 °C (buffer and temperature from the activity assay); pH 8.0; 26.0 °C

B1: 5THNAT (Proteiniphilum saccharofermentans) (protein)
chain: MYLVSGSSLFYGWFKKNMDSIKGTVEIYDLDEYNYPKFRGQLIGLYLHAFTTGDYSQHIDRETVEVTLDDILQDGSGCMAFVGNRLVGLLAAFPLKRDPDFPADTCRDIPVGEAIYIAEVMVHADYRGRRIASKMLNTYLQEKSENYSYAVIRVWEKNMPALELYKKLGFLPVATISQQKLSANKEEFVMNKLYLAVKIIDN
notes: recombinant, produced in Escherichia coli, Ni-NTA purified (tag details not in main text)
Km (purified protein [1]): 0.073 mM | Km (purified protein [2]): 0.058 mM
